For the test, the target named is purified native poly-γ-D-glutamic acid (γDPGA) from B. licheniformis strain 9945 (B. licheniformis). The experiment in a line: ELISA.
Substance “mAb F26G3 IgG1 subclass switch variant (antibody)” registered a fold more mAb required for OD450 = 2.0 than with the IgG3 subclass greater than 15 fold. The value for “mAb F24F2 IgG2b subclass switch variant (antibody)” was greater than 15 fold; that for “mAb F24F2 IgG1 subclass switch variant (antibody)” was greater than 15 fold; that for “mAb F24F2 IgG2a subclass switch variant (antibody)” was greater than 15 fold.

For “mAb F26G3 IgG2b subclass switch variant (antibody)”, the fold more mAb required for OD450 = 2.0 than with the IgG3 subclass is greater than 15 fold. The value for “mAb F26G3 IgG2a subclass switch variant (antibody)” was greater than 15 fold.
